Assay results: the nanobody polyreactivity screen of Harvey et al. (2022)

Experiment: yeast display, Sf9 membrane polyspecificity reagent, FACS + sequencing; frameworks hold sequencing errors
Method in brief: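 Galactose-induced (36–48 hours) yeast carrying a synthetic nanobody display library were exposed to 10% biotinylated, detergent-solubilized Sf9 membrane reagent at 4 °C for 1 hour. FACS followed streptavidin microbead enrichment, using low and high (top ~1%) gates for expression (anti-HA) and reagent binding (streptavidin). Colony PCR, MiSeq 2 × 250 sequencing and CDR-length filtering followed. Labels for polyreactivity reflect the gate of origin.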

Sequence | polyreactivity (PSR sort gate)
QVQLVESGGGLVQAGGSLRLSCAASGLIFPRYAMGWYRQAPGKERELVAAITSRAGSTYYADSVKGRFTISRDNAKNTVYLQMNSLKPEDTAVYYCAAVSDGWDGDMYYWGQGTQVTVSS | low polyreactivity
QVQLVESGGGLVQAGGSLRLSCAASGLIFPRYAMGWYRQAPGKERELVAAITSRAGSTYYADSVKGRFTISRDNAKNTVYLQMNSLKPEDTAVYYCAAVSDGWDGDMYYWGQVTQVTVSS | low polyreactivity
QVQLVESGGGLVQAGGSLRLSCAASGLIFPSYAMGWYRQAPGKERELVAAITFSGSDTNYADSVKGRFTISRDNAKNTVYLQMNSLKPEDTAVYYCAAAYFDFWGWLHDYWGQGTQVTVSS | low polyreactivity
QVQLVESGGGLVQAGGSLRLSCAASGLIFPVYDMAWYRQAPGKERELVAAITRSGDSTYYADSVKGRFTISRDNAKNTVYLQMNSLKPEDSGVYYCAAQPGTASYAGDGDSWGKGTQVTVSS | low polyreactivity
QVQLVESGGGLVQAGGSLRLSCAASGLIFPYNAMGWYRQAPGKERELVAAIDSGVTTYYADSVKGRFTISRDNAKNTVYLQMNSLKPEDTAVYFCAADGLPGPEGDSWGQGTQVSVSS | low polyreactivity
QVQLVESGGGLVQAGGSLRLSCAASGLIFPYYVKVWYRQAPGKERELVAAISWNGSSTYYADSVKGRFTISRDNAKNTVYLQMNSLKPEDTAVYYCAASYGYFEDYGYWGQGTQVTVSS | low polyreactivity
QVQLVESGGGLVQAGGSLRLSCAASGLIFQEYAMGWYRQAPGKERELVAAITSGDSTNYADSVKGRFTISRDNAKNTVYLQMNSLKPEDTAVYYCNVDEAYYFVGEDNYDYWGQGTQVTVSS | low polyreactivity
QVQLVESGGGLVQAGGSLRLSCAASGLIFQVYDMGWYRQAPGKERELVAAISSGSNTNYADSVKGRFTISRDNAKNTVYLQMNSLKPEDTAVYYCAAGLYLQGPFDYWGQGTQVTVSS | low polyreactivity
QVQLVESGGGLVQAGGSLRLSCAASGLIFQVYDMGWYRQAPGKERELVAAISSGSNTNYADSVKGRFTISRDNAKNTVYLQMNSRKPEDTAVYYCAASWGYGALTPDMGYWGQGTQVTVSS | low polyreactivity
QVQLVESGGGLVQAGGSLRLSCAASGLIFRGNAMGWYRQAPGKERELVAGITRGGSTYYADSVKGRFTISRDNAKNTVYLQMNSLKPEDTAVYYCAAAFRDGFTRRYGYWGQGTQVTVSS | high polyreactivity
QVQLVESGGGLVQAGGSLRLSCAASGLIFRGYAMGWYRQAPGKERELVAAISTTGGSTFYADSVKGRFTISRDNAKNTVYLQMNSLKREDTAVYYCNADWAPTGFSGGYPYDYWGQGTQVTVSS | high polyreactivity
QVQLVESGGGLVQAGGSLRLSCAASGLIFRGYAMGWYRQAPGKERELVAVISSSGGITRYADSVKGRFTISRDNAKNTVYLQMNSLKPEDTAVSYCATDRAERTGYTRYVKTYNYWGQGTQVTVSS | low polyreactivity
QVQLVESGGGLVQAGGSLRLSCAASGLIFRGYTMGWYRQAPGKEREFVAAITRRGTSTYYADSVKGRFTISRDNAKNTVYLQMNSLKPEDTAVYYCAARSVSGPRGYPYDYWGQGTQVTVSS | high polyreactivity
QVQLVESGGGLVQAGGSLRLSCAASGLIFRPYAMGWYRQAPGKERELVAALTSGGSTDYADSVKGRFTISRDNAKNTVYLQMNSLKPEDTAVYYCNADIYPHDGYPWQGDYDYWGQGTQVTVSS | low polyreactivity
QVQLVESGGGLVQAGGSLRLSCAASGLIFRRYAMGWYRQAPGKERELVAAISRTGGTTYYADSVKGRFTISRDTAKNTVYLQMNSLKPEDTAVYYCAAAGQGPDYDYWGQGTQVSVSS | high polyreactivity
QVQLVESGGGLVQAGGSLRLSCAASGLIFRRYVMGWYRQAPGKERELVAAITSRGTRTYYADSVKGRFTISRDNAKNTVYLQMNSLKPEDTAVYYCAADGGISAGANSGYDYWGQGTQVTVSS | high polyreactivity
QVQLVESGGGLVQAGGSLRLSCAASGLIFRVYAMGWYRQAPGKERELVAAITWSDGSTYYADSVKGRFTISRDNAKNTVYLQMNSLKPEDTAVYYCAAEFWYDWDYDYYYWGQGTQVTVSS | high polyreactivity
QVQLVESGGGLVQAGGSLRLSCAASGLIFRYNAMGWYRQAPGKERELVAAISRSGGTTYYADSVKGRFTISRDNAKNTVYLQMNSLKPEDTAVYYCATRISQSYYNYGYWGQGTQVTVSS | high polyreactivity
QVQLVESGGGLVQAGGSLRLSCAASGLIFRYNAMGWYRQAPGKERELVASITSDGSTNYADSVKGRFTISRDNAKNTVYLQMNSLKPEDTAVYYCAADGYTYCYYQLIPDYDYWGQGTQVTVSS | low polyreactivity
QVQLVESGGGLVQAGGSLRLSCAASGLIFRYYAKGWYRQGPGNEMELVAVISRRGDSTYYADSVKVRFTISRDNAKNTVYLQMISLKPEDTAVFYCAAEYFKRYKSYEYWGQGTQVTVSS | high polyreactivity
QVQLVESGGGLVQAGGSLRLSCAASGLIFRYYAMGWYRQAPGKERELVASISGSGGSTYYADSVKGRFTISRDNAKNTVYLQMNSLKPEDTAVYYCAATLAVYRRGPRYNYWGQGTQVTVSS | high polyreactivity
QVQLVESGGGLVQAGGSLRLSCAASGLIFRYYVMGWYRQAPGKERDFVASISYSGGRTYYADSVKGRFTISRDYAKNTVYLQMNRLKPEDTAVYYCAGGYYYHRYSYPGDYWGQGTQVTVSS | high polyreactivity

Sequence | polyreactivity (PSR sort gate)
QVQLVESGGGLVQAGGSLRLSCAASGLIFSCNAMGWYRQAPGKERELVASISYSGGRTYYADSVKGRFTISRDNAKNTVYLQMNSLKPEDTAVYYCAADTNATTDPEMDYWGQGTQVTVSS | low polyreactivity
QVQLVESGGGLVQAGGSLRLSCAASGLIFSGYAMGWYRQAPGKDRELVAALTRRGSRTYYADSVKGRFTISRDNAKNTVYLQMNSLKPEDTAVYYCAADRFQGRDDYWGQGTQVTVSS | high polyreactivity
QVQLVESGGGLVQAGGSLRLSCAASGLIFSQNAMGWYRQAPGKERELVARITLSGTSTYYADSVKGRFTISRDNAKNTVYLQMISLKPEDTAVYYCNTRSYSYYVPYRYDYWGQGTQVTVSS | high polyreactivity
QVQLVESGGGLVQAGGSLRLSCAASGLIFSSYAMGWYRQAPGQERELVAAITGSGGRTYYADSVKGRFTISRDNAKNTVYLQMNSLKPEDTAVYYWNRRSRRQGGYWGQGTHVTVSS | high polyreactivity
QVQLVESGGGLVQAGGSLRLSCAASGLIFSWYAMGWYRQAPGKERELVAAITGSGGRTYYADSVKGRFTISRDNAKNTVYLQMNSLKPEDTAVYYCAALYTARYDYWGQGTQVTVSS | high polyreactivity
QVQLVESGGGLVQAGGSLRLSCAASGLIFSYYAMGWYIQAPGKERVLVAAISGVGSTNYADSVKGRFTISRDNEKNTVYLQMNSLKPEDTAVYYCAARFVLRRDYGYWGQGTQVTVSS | high polyreactivity
QVQLVESGGGLVQAGGSLRLSCAASGLIFSYYAMGWYRQAPGKERELVAAISRGGSTNYADSVKGRFTISRDNAKNTVNLQMNSLKPEDTAVYYFAAGRFAYHDDYWGQGTQVTVSS | high polyreactivity
QVQLVESGGGLVQAGGSLRLSCAASGLIFSYYAMGWYRQAPGKERELVAGITRSGASTYADSVKGRFTISRDNAKNTVYLQMNSLKPEDTAVYYCAADWHYLGWFWQYSKYDYWGQGTQVTVSS | high polyreactivity
QVQLVESGGGLVQAGGSLRLSCAASGLIFTAYAMGWYRPAPGKERELVAAITGSGGRTYYADSVKGRFTISRDNALNSVYLQMNSLKAEDTAVYYCAADFPARGSSTYDYWGQGTQVTVSS | high polyreactivity
QVQLVESGGGLVQAGGSLRLSCAASGLIFTNYAMGWYRQAPGKERELVAGISTRGTSTYYADSVKGRFTISRDNAKNTVYLQMNSLKPEDTAVYYCAAVHRVVRAYDYWGQGTQVTVSS | high polyreactivity
QVQLVESGGGLVQAGGSLRLSCAASGLIFTSYAMGWYRQAPGKERELVAAISRGVRTYYADSVKGRFTISRDNAKNTVYLQMNSLKPEDTAVYYCAAAKPPPGKYDYWGQGTQVTVSS | high polyreactivity
QVQLVESGGGLVQAGGSLRLSCAASGLIFTVNAMGWYRQAPGKERELVAAISQSGGSTYYADSVKGRFTISRDNAKNTVYLQMNSLKPEDTAVYYCARGSWRHFRLYGFDYWGQGTQLTVSS | low polyreactivity
QVQLVESGGGLVQAGGSLRLSCAASGLIFTWNAMGWYRQAPGKERELVAAISTGGSTSYADSVKGRFTISRDNAKNTVYLQMNSLKPEDTAVYYCARDSSIWSHGSWYDYWGQGTQVTVSS | low polyreactivity
QVQLVESGGGLVQAGGSLRLSCAASGLIFTYYAMGWYRQAPGKERELVAGISSGTNTNYADSVKGRFTISRDNAKNTVYLQMNSLKPEDTALYYCATTRGYQFVAYGYWGQGTQVTVSS | low polyreactivity
QVQLVESGGGLVQAGGSLRLSCAASGLIFTYYAMGWYRQAPGKERELVAGISSGTNTNYADSVKGRFTISRDNAKNTVYLQMNSLKPEDTAVYYCAKTRGYQFVAYGYWGQGTQVTVSS | low polyreactivity
QVQLVESGGGLVQAGGSLRLSCAASGLIFTYYTMGWYRQEPGTERELVATINWNTSSTYYADSVKGRFTISRDNAKNTVYLQMNSLKPEDTAVYYCNKRIAESDTTVTYDYWGQGTQVTVSS | low polyreactivity
QVQLVESGGGLVQAGGSLRLSCAASGLIFVANAMGWYRQAPGKERELVAAISRSGGITTYADSVKGRFTISRDNAKNTVYLQMNSLKPEDTAVYYCAADTDPNPLIDYTLPMDYWGQGTQVTVSS | low polyreactivity
QVQLVESGGGLVQAGGSLRLSCAASGLIFVNNPMGWYRQAPGKERELVAAISWSTGGSTYYADSVKGRFTISRDNAKNSVYLQMNSLKPEDTAVYYCAAQYSYGEYWGYDYWGQGTQVTVSS | low polyreactivity
QVQLVESGGGLVQAGGSLRLSCAASGLIFVPYAMGWYRQAPGKERELVAAINSGATTYYADSVKGRFTISRDNAKNTVYLQMNSLKPEDTAVYYCNAEYPVYVYWFDYWGQGTQVTVSS | high polyreactivity
QVQLVESGGGLVQAGGSLRLSCAASGLIFVQNAMGWYRQAPGKEREFVAAISAGGTRTYYADSVKGRFTISRDNAKNTVYLQMNSVKPEDTAVYYCAAASGYDYWGQGTQGTVSS | high polyreactivity
QVQLVESGGGLVQAGGSLRLSCAASGLIFVQNAMGWYRQAPGKERELVAAISSRGTNTYYADSVKGRFTISRDNAKNTVYLQMNSLKPEDTAVYYCAKPLKTPRPNYDYWGQGTQVTVSS | low polyreactivity
